In test [1] the target is pSer413(Im) peptide (human). The test is described as follows: SPR (Biacore 3000), antibody captured by anti-mouse antibody, peptide as analyte, single cycle kinetics. (In general: SPR reads the build-up and loss of mass on a sensor chip optically.)
Test [2] addresses T1, pT217 tau peptide.
T1 construct: Partial peptide of tau coated on the ELISA plate
T1 peptide: PSLP[pT]PPTR
The test is described as follows: peptide ELISA. (ELISA stands for enzyme-linked immunosorbent assay.)

Test [3] concerns the target T2, pS46 tau peptide.
T2 construct: Partial peptide of tau coated on the ELISA plate
T2 peptide: GLKE[pS]P
The test is described as follows: peptide ELISA.

Test [4] addresses T3, pS202 tau peptide.
T3 construct: Partial peptide of tau coated on the ELISA plate
T3 peptide: SSPG[pS]SPGTPC
The test is described as follows: peptide ELISA.

Test [5] concerns the target T4, pT212/pS214 tau peptide.
T4 peptide: SRSR[pT]P[pS]LPTP
Description: peptide ELISA.

The target in test [6] is T5, pT212 tau peptide.
T5 construct: Partial peptide of tau coated on the ELISA plate
T5 peptide: SRSR[pT]PSLPTP
Description: peptide ELISA.

Test [7] concerns the target T6, pS214 tau peptide.
T6 peptide: SRSRTP[pS]LPTP
The test is described as follows: peptide ELISA.

In test [8] the target is T7, pS199 tau peptide.
T7 construct: Partial peptide of tau coated on the ELISA plate
T7 peptide: SGYS[pS]PGSPG
Description: peptide ELISA.

The target of test [9] is T8, pS400-BSA (phosphorylated as its name says (pS400); conjugated to BSA).
T8 construct: BSA-conjugated tau peptide coated on the ELISA plate
T8 sequence (P02769 25-607 limits assumed): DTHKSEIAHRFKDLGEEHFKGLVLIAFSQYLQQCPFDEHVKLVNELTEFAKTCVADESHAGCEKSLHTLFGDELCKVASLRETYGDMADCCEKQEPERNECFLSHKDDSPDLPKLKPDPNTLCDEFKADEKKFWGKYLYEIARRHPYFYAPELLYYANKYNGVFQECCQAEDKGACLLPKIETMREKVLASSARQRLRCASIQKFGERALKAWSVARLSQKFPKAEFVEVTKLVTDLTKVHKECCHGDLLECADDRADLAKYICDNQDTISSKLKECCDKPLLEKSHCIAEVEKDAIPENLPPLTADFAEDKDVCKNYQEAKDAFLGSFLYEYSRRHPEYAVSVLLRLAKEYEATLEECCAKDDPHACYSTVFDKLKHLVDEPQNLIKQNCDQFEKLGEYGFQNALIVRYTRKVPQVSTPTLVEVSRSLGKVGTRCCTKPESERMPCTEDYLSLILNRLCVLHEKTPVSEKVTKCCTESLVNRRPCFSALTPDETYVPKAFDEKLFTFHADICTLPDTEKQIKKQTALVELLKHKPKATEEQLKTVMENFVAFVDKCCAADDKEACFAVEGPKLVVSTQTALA
The test is described as follows: peptide ELISA.

In test [10] the target is T9, pS412-BSA (phosphorylated as its name says (pS412); conjugated to BSA).
T9 construct: BSA-conjugated tau peptide coated on the ELISA plate
T9 sequence (P02769 25-607 limits assumed): as above
Description: peptide ELISA.

Numbering of substitutions follows the chain as printed. Non-standard residues stand in square brackets, D forms with d. No end group written: not given here. pT = C[C@@H](OP(=O)(O)O)[C@H](N)C(=O)O; pS = N[C@@H](COP(=O)(O)O)C(=O)O

Chain of pSer413(Im) peptide (human) (peptide, as listed by the source): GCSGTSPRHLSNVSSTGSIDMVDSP

B1: Ta1505 (antibody, V domains shown)
VH: EVQLVESGGGLVQPKGSLKLSCAASGFAFNSFALNWVRQAPGKSLEWVVHIRSKTNNYATFYADSVKDRFTVSRDDSQSMVYLQMNNLKTEDTGIYYCVRRGPRDSWFGYWGQGTLVTVSA
VL: DILMTQTPLSLPVSLGDQASISCRSSQNIVHSNGNTYLEWYLQKPGQSPKVLIYTVSNRFSGVPDRFSGSGSGTDFTLKISRVEAEDLGVYYCFQGSHLPLTFGGGTKL
notes: also called Ta1505-2
B1 yielded a Kd in [1] of 3.87 nM. Besides, in [1], the koff came to 0.000499 s⁻¹. In test [1], this molecule came in with a kon of 129000 M⁻¹ s⁻¹. In addition, the binding result in test [2], in test [3], in [4], in [5], in test [6] and in test [7] was “no binding (tested: 1 µg/mL)” each time. Further, the binding result in [8], in test [9] and in test [10] was “no binding (tested: 1 µg/mL)” each time.

B2: Ta1508 (antibody, V domains shown)
VH: EVHLVESGGGLVQPKGSLKLSCAASGFAFNSFAMNWVRQAPGKGLDWIAHIRSKTNNYVTFYADSVKGRFSISRDDSQSMVYLQMNNLQTEDTGIYYCVRRGPRDSWFGYWGQGTLVTVSA
VL: B1 VL with D1V, I2V
notes: also called Ta15 Series
The molecule B2 yielded a Kd in test [1] of 6.76 nM. The molecule also came in with a koff in test [1] of 0.00098 s⁻¹. Moreover, the kon in test [1] was 145000 M⁻¹ s⁻¹. The binding result in [2], in [3], in test [4], in test [5], in test [6] and in test [7] was “no binding (tested: 1 µg/mL)” throughout. Further, the binding result in test [8], in test [9] and in test [10] was “no binding (tested: 1 µg/mL)” each time.

B3: Ta1509 (antibody, V domains shown)
VH: B2 VH with H3Q, T55S, G68D, S71I, V81I, Q89K, T93S
VL: B1 VL with I2V, T7S, S32T
notes: also called Ta15 Series
For the molecule B3, the Kd in test [1] was 14.4 nM. This molecule also showed a koff in [1] of 0.00125 s⁻¹. In test [1], the kon came to 87100 M⁻¹ s⁻¹. Moreover, the binding result in test [2], in [3], in test [4], in [5], in test [6] and in test [7] was “no binding (tested: 1 µg/mL)” throughout. Moreover, the binding result in [8], in test [9] and in test [10] was “no binding (tested: 1 µg/mL)” throughout.

B4: Ta1506 (antibody, V domains shown)
VH: B2 VH with G44A
VL: B1 VL with D1G, I2V, T7I
notes: also called Ta15 Series
The molecule B4 yielded a Kd in test [1] of 9.75 nM. The same molecule returned a koff in test [1] of 0.00194 s⁻¹. In test [1], this molecule registered a kon of 199000 M⁻¹ s⁻¹. Also, the binding result in [2], in [3], in [4], in test [5], in test [6] and in test [7] was “no binding (tested: 1 µg/mL)” each time. For the same molecule, the binding result in test [8], in [9] and in [10] was “no binding (tested: 1 µg/mL)” throughout.

B5: Ta1502 (antibody, V domains shown)
VH: B1 VH with S79N
VL: B1 VL
notes: also called Ta15 Series
Molecule B5 came in with a Kd in test [1] of 4.2 nM. The koff in [1] worked out at 0.00047 s⁻¹. In test [1], the kon was found to be 112000 M⁻¹ s⁻¹. Also, the binding result in [2], in test [3], in test [4], in test [5], in [6] and in [7] was “no binding (tested: 1 µg/mL)” throughout. The binding result in test [8], in test [9] and in [10] was “no binding (tested: 1 µg/mL)” each time.

B6: Ta1507 (antibody, V domains shown)
VH: B1 VH with V2I, N30S, E46D, V49A, T55A, N57H, A59V
VL: B1 VL with I2V, M4L
notes: also called Ta15 Series
In test [1], B6 yielded a Kd of 4.2 nM. Also, the koff in [1] amounted to 0.000533 s⁻¹. For the same molecule, in test [1], the kon stood at 127000 M⁻¹ s⁻¹. Also, the binding result in test [2], in test [3], in test [4], in test [5], in test [6] and in [7] was “no binding (tested: 1 µg/mL)” throughout. The binding result in test [8], in test [9] and in test [10] was “no binding (tested: 1 µg/mL)” each time.

B7: Ta1501 (antibody, V domains shown)
VH: B2 VH with G10E, A40T, D46N, I48V, V59A, G68D, S71T, S79N, V81L, Q89K
VL: B1 VL with I2V, Q18H
notes: also called Ta15 Series
Turning to B7, the dissociation constant (Kd) in test [1] worked out at 18.6 nM. The same molecule showed a koff in test [1] of 0.00105 s⁻¹. In addition, the kon in test [1] stood at 56400 M⁻¹ s⁻¹. The binding result in test [2], in [3], in test [4], in test [5], in test [6] and in test [7] was “no binding (tested: 1 µg/mL)” each time. Moreover, the binding result in test [8], in test [9] and in test [10] was “no binding (tested: 1 µg/mL)” in each case.

Usually Kd stands for the constant that tells how readily two partners part at equilibrium. By koff is commonly meant the rate constant with which the complex falls apart. A higher koff goes with fast dissociation. By kon is commonly meant the second-order rate constant of association. Low readings indicate slow association, high ones fast association.

The values above are taken from patent US20220340646A1 (OSAKA CITY UNIVERSITY, published 2022).
